Source: article PMC4718896 (Biochemistry, 2015)
Read-outs that look alike come from different tables or passages of the source.

Key:
[1] = molecular target: PKR (Homo sapiens) (UniProt P19525); conditions: cited from earlier work
[2] = molecular target: the molecule itself; experiment: AUC
[3] = molecular target: the molecule itself; experiment: AUC; remark: listed apart in the source

Molecule: PKR (from UniProt P19525)
- Kd [1]: 500 µM

B1: PKRΔVB (human PKR with the whole interdomain linker, variable and basic regions, deleted) (enzyme, UniProt P19525 1-551, looked up)
chain: MAGDLSAGFFMEELNTYRQKQGVVLKYQELPNSGPPHDRRFTFQVIIDGREFPEGEGRSKKEAKNAAAKLAVEILNKEKKAVSPLLLTTTNSSEGLSMGNYIGLINRIAQKKRLTVNYEQCASGVHGPEGFHYKCKMGQKEYSIGTGSTKQEAKQLAAKLAYLQILETKYTVDKRFGMDFKEIELIGSGGFGQVFKAKHRIDGKTYVIKRVKYNNEKAEREVKALAKLDHVNIVHYNGCWDGFDYDPETSDDSLESSDYDPENSKNSSRSKTKCLFIQMEFCDKGTLEQWIEKRRGEKLDKVLALELFEQITKGVDYIHSKKLIHRDLKPSNIFLVDTKQVKIGDFGLVTSLKNDGKRTRSKGTLRYMSPEQISSQDYGKEVDLYALGLILAELLHVCDTAFETSKFFTDLRDGIISDIFDKKEKTLLQKLLSKKPEDRPNTSEILRTLTVWKKSPEKNERHTC
- Kd [2]: 1730 µM
- stoichiometry N [2]: 2

B2: PKRΔV (human PKR with the variable region of the interdomain linker deleted) (enzyme, UniProt P19525 1-551, looked up)
chain: MAGDLSAGFFMEELNTYRQKQGVVLKYQELPNSGPPHDRRFTFQVIIDGREFPEGEGRSKKEAKNAAAKLAVEILNKEKKAVSPLLLTTTNSSEGLSMGNYIGLINRIAQKKRLTVNYEQCASGVHGPEGFHYKCKMGQKEYSIGTGSTKQEAKQLAAKLAYLQILMNGLRNNQRKAKRSLAPRFDLPDMKETKYTVDKRFGMDFKEIELIGSGGFGQVFKAKHRIDGKTYVIKRVKYNNEKAEREVKALAKLDHVNIVHYNGCWDGFDYDPETSDDSLESSDYDPENSKNSSRSKTKCLFIQMEFCDKGTLEQWIEKRRGEKLDKVLALELFEQITKGVDYIHSKKLIHRDLKPSNIFLVDTKQVKIGDFGLVTSLKNDGKRTRSKGTLRYMSPEQISSQDYGKEVDLYALGLILAELLHVCDTAFETSKFFTDLRDGIISDIFDKKEKTLLQKLLSKKPEDRPNTSEILRTLTVWKKSPEKNERHTC
- Kd [3]: 1100 µM
- stoichiometry N [3]: 2
